# Patent US20210155689A1 (SHANGHAI PHARMAEXPLORER, published 2021)
# Positions count from the first letter of the chain named.
# T1: LAG-3-hFc protein (human LAG-3 extracellular region with hFc tag) (human, UniProt P18627 23-450)
# T1 construct: also called hLAG-3-hFc; LAG-3 protein; not shown: human IgG Fc fragment (hFc) of the pCpC vector
# T1 sequence: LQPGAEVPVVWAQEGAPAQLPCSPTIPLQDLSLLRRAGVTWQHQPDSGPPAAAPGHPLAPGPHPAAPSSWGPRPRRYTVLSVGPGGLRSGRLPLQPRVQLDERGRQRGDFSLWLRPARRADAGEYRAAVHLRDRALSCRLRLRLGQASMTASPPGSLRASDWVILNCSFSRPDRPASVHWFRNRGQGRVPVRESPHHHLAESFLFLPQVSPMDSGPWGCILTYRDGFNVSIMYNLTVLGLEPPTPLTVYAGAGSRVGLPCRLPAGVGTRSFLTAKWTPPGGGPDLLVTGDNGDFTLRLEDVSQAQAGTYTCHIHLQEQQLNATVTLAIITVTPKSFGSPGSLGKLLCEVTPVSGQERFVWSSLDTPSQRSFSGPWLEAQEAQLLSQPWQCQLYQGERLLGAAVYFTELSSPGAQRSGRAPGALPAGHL
# T2: mouse LAG-3 protein with hFc tag (mLAG-3-hFc protein) (mouse; human, UniProt Q61790 24-442)
# T2 construct: Made in HEK293 cells; also called mouse LAG-3 extracellular domain protein; not shown: human IgG Fc fragment (hFc) of the pCpC vector
# T2 sequence: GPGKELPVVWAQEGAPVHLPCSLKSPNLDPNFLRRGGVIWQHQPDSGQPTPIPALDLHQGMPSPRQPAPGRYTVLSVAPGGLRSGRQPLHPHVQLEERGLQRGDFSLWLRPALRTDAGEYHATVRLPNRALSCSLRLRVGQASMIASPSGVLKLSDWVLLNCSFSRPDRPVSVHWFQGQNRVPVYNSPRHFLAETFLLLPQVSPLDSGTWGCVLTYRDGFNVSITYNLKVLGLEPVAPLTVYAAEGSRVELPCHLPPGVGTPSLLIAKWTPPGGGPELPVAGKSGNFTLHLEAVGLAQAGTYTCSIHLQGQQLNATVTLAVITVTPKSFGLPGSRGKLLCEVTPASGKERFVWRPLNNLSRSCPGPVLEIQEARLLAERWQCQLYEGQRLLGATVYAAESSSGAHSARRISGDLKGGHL
# T3: hFc tagged monkey LAG-3 protein (cLAG-3-hFc protein) (monkey; human)
# T3 construct: Made in HEK293 cells; also called monkey LAG-3 extracellular domain protein; not shown: human IgG Fc fragment (hFc) of the pCpC vector
# T3 chain: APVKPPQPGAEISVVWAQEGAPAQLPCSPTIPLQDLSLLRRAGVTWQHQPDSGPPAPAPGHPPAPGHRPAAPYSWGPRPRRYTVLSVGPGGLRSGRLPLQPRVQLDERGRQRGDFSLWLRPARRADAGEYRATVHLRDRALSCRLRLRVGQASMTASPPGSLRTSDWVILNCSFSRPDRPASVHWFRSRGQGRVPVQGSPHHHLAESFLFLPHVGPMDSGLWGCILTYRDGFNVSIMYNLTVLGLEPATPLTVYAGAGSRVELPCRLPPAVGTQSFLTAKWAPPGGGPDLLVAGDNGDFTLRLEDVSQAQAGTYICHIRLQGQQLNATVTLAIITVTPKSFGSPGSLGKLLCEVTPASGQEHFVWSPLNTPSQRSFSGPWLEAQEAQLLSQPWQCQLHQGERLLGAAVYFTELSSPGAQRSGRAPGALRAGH
# B1: 556F6B8 mouse-human chimeric antibody (antibody, V domains shown)
# VH: RVQLKQSGPGLVQPSQSLSITCTVSGFSLIKYGVHWVRQSPGEGLEWLGVIWRGGITDYNAAFMSRLSITKDNSKSQVFFKMNSLQADDTAIYYCAKWDGPLAMDYWGQGTSVTVSS
# VL: DIVMTQSHKFLSTSVGDRVSITCKASQDVGTTVAWYQQKPGQSPKLLIYWASTRHTGVPDRFTGSGSGTDFTLTISNVQSEDLADYFCQQYSSYPYTFGGGTKLEIK
# notes: also called mAb123-556F6B8; 556F8B8
# B2: 556F6B8 (LAG-3 mouse-human chimeric antibody) (antibody, V domains shown)
# VH: B1 VH
# VL: B1 VL
# notes: also called 556F8B8
# B3: 105F1E10 mouse-human chimeric antibody (antibody, V domains shown)
# VH: EVQLQQSGPELVKPGASVKMSCRASGYTFTDFKMHWMKQSHGKSLEWIGYIAPNNGGTAYNQKFRGKATLTVNESSNTAYMELRSLTSEDSAVYYCVDWDDVDYWGQGTTLTVSS
# VL: DIKMTQSPSSMYASLGERVTITCKASQDINSYLSWFQQKSGKSPKTLIYRANRLVDGVPSRFSGSGSGQDYSLTISSLEYEDMGIYYCLQYVEFPLTFGAGTKLELK
# notes: also called mAb009-105F1E10
# B4: 105F1E10 (LAG-3 mouse-human chimeric antibody) (antibody, V domains shown)
# VH: B3 VH
# VL: B3 VL
# B5: 405B8H3 (LAG-3 mouse-human chimeric antibody) (antibody, V domains shown)
# VH: QVQLQQSGAELVRPGASVTLSCKASGYTFTDYEMHWVKQTPVHGLEWIGATDPETGNSAYNQKFKGKAIMTADKSSSTAYMELRSLTSEDSAVYYCISTGWNDWGQGTSLTVSS
# VL: B3 VL with S40P, N52D, V55L, E81G, V92D, L96Y, A100G, L106I
# notes: also called mouse-human chimeric antibody 405B8H3
# B6: 405B8H3 mouse-human chimeric antibody (antibody, V domains shown)
# VH: B5 VH
# VL: B3 VL with S40P, N52D, V55L, E81G, V92D, L96Y, A100G, L106I
# notes: also called mAb103-405B8H3
# B7: 409B11E12 mouse-human chimeric antibody (antibody, V domains shown)
# VH: B5 VH with P41T, G56S, N57Y, M70L, S98A
# VL: B3 VL with I2L, S40P, V55L, V92D, L96Y, A100G, L106I
# notes: also called mAb104-409B11E12
# B8: 409B11E12 (LAG-3 mouse-human chimeric antibody) (antibody, V domains shown)
# VH: B5 VH with P41T, G56S, N57Y, M70L, S98A
# VL: B3 VL with I2L, S40P, V55L, V92D, L96Y, A100G, L106I
# B9: 409D4E10 (LAG-3 mouse-human chimeric antibody) (antibody, V domains shown)
# VH: B5 VH with Y27N, G56D, S58T, M70L, A72T, S98T, T99S
# VL: B3 VL with S40P, V55L, V92N, L96Y, A100G, L106I
# B10: 409D4E10 mouse-human chimeric antibody (antibody, V domains shown)
# VH: B5 VH with Y27N, G56D, S58T, M70L, A72T, S98T, T99S
# VL: B3 VL with S40P, V55L, V92N, L96Y, A100G, L106I
# notes: also called mAb112-409D4E10
# Columns and labels:
# [1] = molecular target: T1, LAG-3-hFc protein (human LAG-3 …); assay: FACS, inhibition of LAG-3-hFc binding to MHC II on Raji cells, antibody 66.667 nM
# Method: The FACS reaction plate incubating the Raji cells was centrifuged to discard the supernatant. The above mixture was added as 100 μl per well to Raji cells and incubated on ice for 1-2 hours. The plate was washed twice with blocking solution (PBS, 2% fetal bovine serum) by centrifugation, added with 100 microliters of fluorescent (Alexa 488)-labeled secondary antibodies per well, and incubated on ice for 1.0 hours. The plate was washed 2-3 times by centrifugation with blocking solution (PBS, 2% fetal bovine serum), added with 100 microliters of PBS per well to suspend cells, and detected using FACS (FACS Calibur, BD) and the results were analyzed. Wherein, the IgG control was murine IgG, and the data in the table is the inhibition rate (%).
# [2] = molecular target: T2, mouse LAG-3 protein with hFc tag …; assay: ELISA, mLAG-3-hFc coated
# Method: (§1) The plate was sealed with plastic film and incubated overnight at 4° C. The plate was washed 2 times with the plate washing solution (PBS+0.01% Tween20) on the next day, and added with the blocking solution (PBS+0.01% Tween20+1% BSA) and blocked at room temperature for 1-2 hours. The blocking solution was poured out, and the plate was added with 50-100 μl of the antibody sample to be tested to each well, incubated at 37° C. for 1-2 hours, and washed 2-3 times with a plate washing solution (PBS+0.01% Tween20). HRP (horseradish peroxidase) labeled secondary antibody was added, and the plate was incubated at 37° C. for 1-2 hours, and washed 2-3 times with a plate washing solution (PBS+0.01% Tween20). 100 μl of TMB substrate was added to each well. After incubated at room temperature for 15-30 minutes, the plate was added with 100 μl of stop solution (1.0N HCl) to each well.
# [3] = molecular target: T3, hFc tagged monkey LAG-3 protein …; assay: ELISA, cLAG-3-hFc coated; 0.0007 nM
# Method: as §1
Binder,Inhibition rate (%) [1],binding result [2],OD450 [3]
B1,96%,,
B2,,no binding (tested: 66.6670 nM),0.21 OD450
B3,96%,,
B4,,no binding (tested: 66.6670 nM),0.16 OD450
B5,,no binding (tested: 66.6670 nM),0.21 OD450
B6,95.8%,,
B7,95.3%,,
B8,,no binding (tested: 66.6670 nM),0.17 OD450
B9,,no binding (tested: 66.6670 nM),0.27 OD450
B10,95.9%,,
